Results taken from paper PMC11919693, “Structural basis of the mechanism and inhibition of a human ceramide synthase” (Nature Structural & Molecular Biology, 2024).

T1: biotinylated C-terminally Avi-tagged human CerS6 (Homo sapiens, biotin on the Avi tag (in vitro, BirA))
T1 construct: Ceramide synthase 6 (CerS6), Homo sapiens, UniProt Q6ZMG9; A Gly-Gly-Gly-Ser linker stands between CerS6 and the Avi tag, which lies upstream of the TEV cleavage site; also called biotinylated CerS6; Avi-tagged CerS6; not shown: Avi, C-terminal, kept; 10xHis, C-terminal, cleaved; Twin-Strep, C-terminal, cleaved
T1 chain: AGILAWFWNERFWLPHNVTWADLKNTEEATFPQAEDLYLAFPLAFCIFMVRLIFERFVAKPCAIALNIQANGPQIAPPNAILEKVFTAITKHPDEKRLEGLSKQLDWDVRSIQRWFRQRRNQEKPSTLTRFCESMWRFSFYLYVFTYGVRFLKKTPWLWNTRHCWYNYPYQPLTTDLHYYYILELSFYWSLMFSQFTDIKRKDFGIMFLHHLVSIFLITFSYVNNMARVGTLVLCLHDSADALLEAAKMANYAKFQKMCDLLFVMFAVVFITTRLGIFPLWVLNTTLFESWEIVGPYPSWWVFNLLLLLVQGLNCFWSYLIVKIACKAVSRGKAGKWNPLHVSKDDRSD

B1: nanobody 02 (Nb02), anti-CerS6 camelid nanobody (VHH)
VHH: QLQFVESGGGLVQAGGSLRLSCAASGRTFSRYAVGWFRQAPGKEREFVASITWNGATTYYADSVKGRFTISRDNAKNTVYLQMNSLKPEDTAVYYCALDLYSYGTRDVADFGSWGKGTRVTVSS
notes: alpaca nanobody raised against CerS6 proteoliposomes; its chain is in the deposited model PDB 9EOT (residues 1-123 modelled); source: WK6 cells, purified from periplasmic extracts (Ni2+-NTA)
B2: nanobody 22 (Nb22), anti-CerS6 camelid nanobody (VHH)
VHH: QVQLVESGGGLVQAEGSLRLSCAASGRTFRTYGMGWFRQAPGKEREFVAALNWSGSSTYYADSVKGRFTISRDNAKNTAYLQMNSLKPEDTAVYYCAALRRKAEYGSRSIADFDSWSKGTPVTVSS
notes: alpaca nanobody raised against CerS6 proteoliposomes; its chain is in the deposited models PDB 8QZ6 and 8QZ7 (residues 1-124 modelled); source: WK6 cells, purified from periplasmic extracts (Ni2+-NTA)
B3: human ceramide synthase 6 (CerS6), truncated at Asp350 (Met1-Asp350) (enzyme, UniProt Q6ZMG9-2 1-350, looked up)
chain: MAGILAWFWNERFWLPHNVTWADLKNTEEATFPQAEDLYLAFPLAFCIFMVRLIFERFVAKPCAIALNIQANGPQIAPPNAILEKVFTAITKHPDEKRLEGLSKQLDWDVRSIQRWFRQRRNQEKPSTLTRFCESMWRFSFYLYVFTYGVRFLKKTPWLWNTRHCWYNYPYQPLTTDLHYYYILELSFYWSLMFSQFTDIKRKDFGIMFLHHLVSIFLITFSYVNNMARVGTLVLCLHDSADALLEAAKMANYAKFQKMCDLLFVMFAVVFITTRLGIFPLWVLNTTLFESWEIVGPYPSWWVFNLLLLLVQGLNCFWSYLIVKIACKAVSRGKAGKWNPLHVSKDDRSD
modifications: palmitoyl (C16:0) chain covalently attached to His211 (covalent intermediate state; transferred to FB1 in the N-palmitoyl FB1-bound state); N-linked glycan on Asn18; loss of the initiator methionine and acetylation of the new N terminus
notes: Ceramide synthase 6 (CerS6), Homo sapiens, UniProt Q6ZMG9, residues Met1-Asp350; C terminus predicted to be disordered removed; Purified as a mixture of monomer and dimer; the dimer SEC peak was used for the nanobody complexes and cryo-EM; also called acyl–CerS6; palmitoyl–CerS6; not shown: 10xHis, C-terminal, cleaved; Twin-Strep, C-terminal, cleaved
B4: CerS6: N18Q (protein)
parent chain: MAGILAWFWNERFWLPHNVTWADLKNTEEATFPQAEDLYLAFPLAFCIFMVRLIFERFVAKPCAIALNIQANGPQIAPPNAILEKVFTAITKHPDEKRLEGLSKQLDWDVRSIQRWFRQRRNQEKPSTLTRFCESMWRFSFYLYVFTYGVRFLKKTPWLWNTRHCWYNYPYQPLTTDLHYYYILELSFYWSLMFSQFTDIKRKDFGIMFLHHLVSIFLITFSYVNNMARVGTLVLCLHDSADALLEAAKMANYAKFQKMCDLLFVMFAVVFITTRLGIFPLWVLNTTLFESWEIVGPYPSWWVFNLLLLLVQGLNCFWSYLIVKIACKAVSRGKVSKDDRSDIESSSDEEDSEPPGKNPHTATTTNGTSGTNGYLLTGSCSMDD

Experiments:
[1] = target: T1, biotinylated C-terminally Avi-tagged …; assay: BLI; Octet Red 384, Streptavidin SA biosensors loaded with 40 µg/ml biotinylated CerS6, SEC buffer with 0.003% LMNG and 0.0003% CHS; screen of unique nanobodies for slow off rates; conditions: both partners purified
[2] = target: human ceramide synthase 6 (CerS6), truncated at Asp350 (Met1-Asp350) (human) (UniProt Q6ZMG9); assay: cryo-EM structure; CerS6 dimer mixed with a 1.5x molar excess of nanobody (Nb22 or Nb02), 1 h on ice, complex purified by SEC in GDN, 5 mg/ml; the CerS6–Nb22 complex also after incubation with 120 µM FB1; C2 symmetry imposed
[3] = target: the molecule itself; assay: as above
[4] = denaturing intact protein MS; conditions: glycan lost; control: wild-type CerS6 (Met1-Asp350)

| Binder | binding result [1] | stoichiometry N [2] | stoichiometry N [3] | other: presence of covalent palmitoyl-enzyme adduct, other: adduct mass shift [4] |
| --- | --- | --- | --- | --- |
| B1 | binds | 1 |  |  |
| B2 | binds | 1 per monomer |  |  |
| B3 |  |  | 2 |  |
| B4 |  |  |  | no change, +239.80 vs +238.45 |
